Three molecules from article PMC12132310 can be followed below.

Experiment [1] concerns the target SUZ12-3XFLAG PRC2.1mut (loss-of-PRC2.1 mutant, (338–353)-to-GSGSGS) (human (edited endogenous locus in WTC-11 hiPSCs)), Q15022. In words: affinity purification with mass spectrometry. As to conditions: remark: other sources report otherwise.
Experiment [2] addresses SUZ12-3XFLAG PRC2.2mut (loss-of-PRC2.2 mutant, F99A, R103A, L105A, I106A) (human (edited endogenous locus in WTC-11 hiPSCs)), Q15022. In words: affinity purification with mass spectrometry. As to conditions: remark: other sources report otherwise.

B1: MTF2 (endogenous, hiPSCs), Q9Y483 1-593 (natural protein)
chain: MRDSTGAGNSLVHKRSPLRRNQKTPTSLTKLSLQDGHKAKKPACKFEEGQDVLARWSDGLFYLGTIKKINILKQSCFIIFEDSSKSWVLWKDIQTGATGSGEMVCTICQEEYSEAPNEMVICDKCGQGYHQLCHTPHIDSSVIDSDEKWLCRQCVFATTTKRGGALKKGPNAKALQVMKQTLPYSVADLEWDAGHKTNVQQCYCYCGGPGDWYLKMLQCCKCKQWFHEACVQCLQKPMLFGDRFYTFICSVCSSGPEYLKRLPLQWVDIAHLCLYNLSVIHKKKYFDSELELMTYINENWDRLHPGELADTPKSERYEHVLEALNDYKTMFMSGKEIKKKKHLFGLRIRVPPVPPNVAFKAEKEPEGTSHEFKIKGRKASKPISDSREVSNGIEKKGKKKSVGRPPGPYTRKMIQKTAEPLLDKESISENPTLDLPCSIGRTEGTAHSSNTSDVDFTGASSAKETTSSSISRHYGLSDSRKRTRTGRSWPAAIPHLRRRRGRLPRRALQTQNSEIVKDDEGKEDYQFDELNTEILNNLADQELQLNHLKNSITSYFGAAGRIACGEKYRVLARRVTLDGKVQYLVEWEGATAS
Consider B1, for which the fold less enriched than with WT SUZ12 in experiment [1] is 35 fold.

B2: JARID2 (endogenous, hiPSCs), Q92833 1-1246 (natural protein)
chain: MSKERPKRNIIQKKYDDSDGIPWSEERVVRKVLYLSLKEFKNSQKRQHAEGIAGSLKTVNGLLGNDQSKGLGPASEQSENEKDDASQVSSTSNDVSSSDFEEGPSRKRPRLQAQRKFAQSQPNSPSTTPVKIVEPLLPPPATQISDLSKRKPKTEDFLTFLCLRGSPALPNSMVYFGSSQDEEEVEEEDDETEDVKTATNNASSSCQSTPRKGKTHKHVHNGHVFNGSSRSTREKEPVQKHKSKEATPAKEKHSDHRADSRREQASANHPAAAPSTGSSAKGLAATHHHPPLHRSAQDLRKQVSKVNGVTRMSSLGAGVTSAKKMREVRPSPSKTVKYTATVTKGAVTYTKAKRELVKDTKPNHHKPSSAVNHTISGKTESSNAKTRKQVLSLGGASKSTGPAVNGLKVSGRLNPKSCTKEVGGRQLREGLQLREGLRNSKRRLEEAHQAEKPQSPPKKMKGAAGPAEGPGKKAPAERGLLNGHVKKEVPERSLERNRPKRATAGKSTPGRQAHGKADSASCENRSTSQPESVHKPQDSGKAEKGGGKAGWAAMDEIPVLRPSAKEFHDPLIYIESVRAQVEKFGMCRVIPPPDWRPECKLNDEMRFVTQIQHIHKLGRRWGPNVQRLACIKKHLKSQGITMDELPLIGGCELDLACFFRLINEMGGMQQVTDLKKWNKLADMLRIPRTAQDRLAKLQEAYCQYLLSYDSLSPEEHRRLEKEVLMEKEILEKRKGPLEGHTENDHHKFHPLPRFEPKNGLIHGVAPRNGFRSKLKEVGQAQLKTGRRRLFAQEKEVVKEEEEDKGVLNDFHKCIYKGRSVSLTTFYRTARNIMSMCFSKEPAPAEIEQEYWRLVEEKDCHVAVHCGKVDTNTHGSGFPVGKSEPFSRHGWNLTVLPNNTGSILRHLGAVPGVTIPWLNIGMVFSTSCWSRDQNHLPYIDYLHTGADCIWYCIPAEEENKLEDVVHTLLQANGTPGLQMLESNVMISPEVLCKEGIKVHRTVQQSGQFVVCFPGSFVSKVCCGYSVSETVHFATTQWTSMGFETAKEMKRRHIAKPFSMEKLLYQIAQAEAKKENGPTLSTISALLDELRDTELRQRRQLFEAGLHSSARYGSHDGSSTVADGKKKPRKWLQLETSERRCQICQHLCYLSMVVQENENVVFCLECALRHVEKQKSCRGLKLMYRYDEEQIISLVNQICGKVSGKNGSIENCLSKPTPKRGPRKRATVDVPPSRLSASSSSKSASSSS
B2 showed a fold less enriched than with WT SUZ12 in experiment [2] of 13 fold.

B3: EPOP, A6NHQ4 1-379 (natural protein)
chain: METLCPAPRLAVPASPRGSPCSPTPRKPCRGTQEFSPLCLRALAFCALAKPRASSLGPGPGELAARSPVLRGPQAPLRPGGWAPDGLKHLWAPTGRPGVPNTAAGEDADVAACPRRGEEEEGGGGFPHFGVRSCAPPGRCPAPPHPRESTTSFASAPPRPAPGLEPQRGPAASPPQEPSSRPPSPPAGLSTEPAGPGTAPRPFLPGQPAEVDGNPPPAAPEAPAASPSTASPAPAAPGDLRQEHFDRLIRRSKLWCYAKGFALDTPSLRRGPERPPAKGPARGAAKKRRLPAPPPRTAQPRRPAPTLPTTSTFSLLNCFPCPPALVVGEDGDLKPASSLRLQGDSKPPPAHPLWRWQMGGPAVPEPPGLKFWGINMDES
Regarding B3, the fold less enriched than with WT SUZ12 in experiment [1] came to 48 fold.
